The results in this text go back to article PMC5481817, “Developing Targeted Hybrid Imaging Probes by Chelator Scaffolding” (Bioconjugate chemistry, 2017).

In series [1] the test system is mice bearing U-87MG tumor xenografts. Kind of series: Static micro-PET/CT imaging, U-87MG xenografts. The settings on record: static PET, 30 and 90 min p.i. The series is classed as in vivo, mouse. The protocol:
All animal experiments were conducted in accordance with regulations and guidelines of the Czech Animal Protection Act (No. 246/1992), and with the approval of the Czech Ministry of Education, Youth, and Sports (MSMT-22421/2013–12), and the institutional Animal Welfare Committee of the Faculty of Medicine and Dentistry of Palacky University in Olomouc. The studies were performed using female 8–10-week-old athymic BALB/c nude mice (Envigo, Horst, The Netherlands). […]
Tumor xenografts were established near the front shoulder of mice by subcutaneous injection of 5 × 10^6 cells (U-87 MG) or 2 × 10^6 cells (A431-CCK2R) and the same amount of A431-mock cells as a control in 200 μL appropriate medium and Matrigel (1:1). […] Tumors, blood, muscle tissue, and organs were extracted, weighed, and activity uptake of the samples was measured in the gamma counter. Results were expressed as percentage of injected dose per gram tissue (% ID/g). […] After reconstruction, acquired data was viewed and analyzed with PMOD software (PMOD Technologies Ltd., Zurich, Switzerland). […] Near-infrared in vivo fluorescence imaging was performed with an In-Vivo MS FX PRO small animal imaging system (Bruker Biospin Corporation, Woodbridge, CT, USA). […] An appropriate filter set (excitation = 730 nm and emission = 790 nm) was used for acquiring the Sulfo-Cy7-FSC-peptide - fluorescence in vivo. […]

Another series is described as follows: in vitro. Type of series: in vitro ADME, human. The method, then: (§1) [^68Ga]Sulfo-Cy7-FSC-MG and [^68Ga]Sulfo-Cy7-FSC-RGD (6 MBq) were diluted with phosphate buffered saline to a concentration of 1 μM. Subsequently 50 μL of this solution was added to six Eppendorf tubes containing 450 μL PBS and 500 μL octanol. The mixture was vortexed (1400 rpm) at RT for 15 min using a MS 3 basic vortexer (IKA, Staufen, Germany) followed by centrifugation for 2 min at 4500 rpm. Aliquots of 100 μL of both phases were transferred to plastic vials, measured in the γ-counter and logD values were calculated. For stability testing, radiolabeled tracers were diluted with 450 μL fresh human serum and 450 μL PBS as control to a concentration of 2 μM followed by incubation at 37 °C. After 1, 2, and 4 h (n = 3) 50 μL aliquots were precipitated with acetonitrile (1:1) and centrifuged for 2 min at 14 × 10^3 rpm. The supernatant was analyzed by radio-RP-HPLC to evaluate for decomposition and corresponding chromatograms are shown in Supporting Information. For protein binding measurement aliquots were analyzed by size exclusion chromatography using MicroSpin G-50 Columns (Sephadex G-50, GE Healthcare, Vienna, Austria) in triplicates. […] Column and eluate were measured in the γ-counter and percentages of nonprotein bound radiolabeled peptide (column) and protein bound radiotracer (eluate) were calculated.

For series [2] the following is noted: mouse, in vivo. The protocol:
(§2) All animal experiments were conducted in accordance with regulations and guidelines of the Czech Animal Protection Act (No. 246/1992), and with the approval of the Czech Ministry of Education, Youth, and Sports (MSMT-22421/2013–12), and the institutional Animal Welfare Committee of the Faculty of Medicine and Dentistry of Palacky University in Olomouc. The studies were performed using female 8–10-week-old athymic BALB/c nude mice (Envigo, Horst, The Netherlands). The number of animals was reduced as much as possible (n = 3 per group and time point for all experiments) and retro-orbital (r.o.) tracer injection as well as small animal imaging was carried out under 2% isoflurane anesthesia (FORANE, Abbott Laboratories, Abbott Park, IL, USA) to minimize animal suffering.
(§3) Tumor xenografts were established near the front shoulder of mice by subcutaneous injection of 5 × 10^6 cells (U-87 MG) or 2 × 10^6 cells (A431-CCK2R) and the same amount of A431-mock cells as a control in 200 μL appropriate medium and Matrigel (1:1). The tumors were allowed to grow until they had reached a volume of 0.2 to 0.5 cm^3. To evaluate ex vivo biodistribution mice were injected with 1–2 MBq (0.05–0.14 nmol) of radiotracer per mouse and mice were sacrificed by cervical dislocation after 30 and 90 min for [^68Ga]Sulfo-Cy7-FSC-RGD and after 1 and 2 h in the case of [^68Ga]Sulfo-Cy7-FSC-MG. Tumors, blood, muscle tissue, and organs were extracted, weighed, and activity uptake of the samples was measured in the gamma counter. Results were expressed as percentage of injected dose per gram tissue (% ID/g). In vivo PET and CT images were acquired with an Albira PET/SPECT/CT small animal imaging system (Bruker Biospin Corporation, Wood-bridge, CT, USA). Xenograft bearing mice were injected with radiolabeled peptides in a dose of ~5 MBq corresponding to 1–2 μg (0.25–0.58 nmol) of peptide per mouse. Anaesthetized animals were positioned prone head first in the Albira system before the start of imaging. Static PET/CT imaging was carried out 30 and 90 min p.i. for [^68Ga]Sulfo-Cy7-FSC-RGD. Animals injected with [^68Ga]Sulfo-Cy7-FSC-MG were imaged 1 and 2 h p.i. A 10 min PET scan (axial FOV 148 mm) was performed, followed by a CT scan (axial FOV 65 mm, 45 kVp, 400 μA, at 400 projections). Scans were reconstructed with the Albira software (Bruker Biospin Corporation, Woodbridge, CT, USA) using the maximum likelihood expectation maximization (MLEM) and filtered backprojection (FBP) algorithms. After reconstruction, acquired data was viewed and analyzed with PMOD software (PMOD Technologies Ltd., Zurich, Switzerland). 3D images were obtained using VolView software (Kitware, Clifton Park, NY, USA). Near-infrared in vivo fluorescence imaging was performed with an In-Vivo MS FX PRO small animal imaging system (Bruker Biospin Corporation, Woodbridge, CT, USA). Sulfo-Cy7-FSC-MG and Sulfo-Cy7-FSC-RGD were injected in a dose of 0.25–0.58 nmol per mouse and after supine head first positioning, imaging was conducted in various time intervals up to 72 h p.i. An appropriate filter set (excitation = 730 nm and emission = 790 nm) was used for acquiring the Sulfo-Cy7-FSC-peptide - fluorescence in vivo. Identical illumination settings (acquisition time = 15 s, filters = 730/790 nm, f-stop = 2.8, field of view = 100 mm, and binning = 4 × 4) were used for acquiring all images, and fluorescence emission was normalized to photons/s/mm^2. Images were acquired and analyzed using Bruker MI SE software (Bruker Biospin Corporation, Woodbridge, CT, USA).

The test system of series [3] is U-87MG (αvβ3 positive) xenograft bearing mice. The settings on record: mouse, in vivo, 1.5 h. The protocol:
as §2, §3

The format of series [4] is physicochemical. The settings on record: pH 7.4. The method, then: as §1
In series [5] the test system is M21-L (αvβ3 negative) cells. Briefly: M21-L internalization assay (radioligand). The series is classed as cell-based, human. The settings on record: for Cell uptake (internalized): M21-L (αvβ3 negative); for unspecific membrane bound activity: M21-L cells. The method, then: (§4) Integrin αvβ3 positive (M21) and αvβ3 negative (M21-L) cells were diluted with incubation medium, i.e., corresponding growth medium containing 1% glutamine (m/v), 1% BSA (m/v), CaCl2 (1 mM), MgCl2 (1 mM), and MnCl2 (10 mM) to a concentration of 2.0 × 10^6 cells/ml. Aliquots of one milliliter were transferred to Eppendorf tubes and six technical replicates for each cell line were incubated for 1 h at 37 °C. Subsequently 50 μL of the radiolabeled ligand (1.2 nM [^68Ga]Sulfo-Cy7-FSC-RGD in PBS/0.5% BSA, approximately 2 × 10^4 cpm) were added and incubated at 37 °C for further 60 and 120 min, respectively. After incubation the tubes were centrifuged (2 min, 5000 rpm; Eppendorf Centrifuge 5424, Hamburg, Germany) and the supernatant was removed and collected. Hereafter the cells were washed twice with 1 mL ice-cold washing buffer (10 mM TRIS-buffered saline, pH 7.3) and the fractions were combined with the supernatant (wash fraction). To determine the membrane bound tracer amount cells were washed two times with 1 mL acetate buffer (20 mM, pH 4.5, 10 min at 37 °C) and the supernatant was collected. The residual cells were lysed by adding 1 mL of 2 M NaOH twice and collected in plastic vials (internalized fraction). The activity of all collected vials was measured in the γ-counter and compared to standard solution (50 μL radiotracer).

The test system of series [6] is M21 (αvβ3 positive) cells. Briefly: M21 internalization assay (radioligand). The series is classed as cell-based, human. The settings on record: for Cell uptake (internalized): M21 (αvβ3 positive); for membrane bound amount of activity: M21 cells. The method, then:
as §4

A short description of the next series: physchem. The settings on record: buffer or solvent. Type of series: physicochemical. The protocol:
[^68Ga]Sulfo-Cy7-FSC-MG and [^68Ga]Sulfo-Cy7-FSC-RGD (6 MBq) were diluted with phosphate buffered saline to a concentration of 1 μM. Subsequently 50 μL of this solution was added to six Eppendorf tubes containing 450 μL PBS and 500 μL octanol. The mixture was vortexed (1400 rpm) at RT for 15 min using a MS 3 basic vortexer (IKA, Staufen, Germany) followed by centrifugation for 2 min at 4500 rpm. Aliquots of 100 μL of both phases were transferred to plastic vials, measured in the γ-counter and logD values were calculated. For stability testing, radiolabeled tracers were diluted with 450 μL fresh human serum and 450 μL PBS as control to a concentration of 2 μM followed by incubation at 37 °C. After 1, 2, and 4 h (n = 3) 50 μL aliquots were precipitated with acetonitrile (1:1) and centrifuged for 2 min at 14 × 10^3 rpm. The supernatant was analyzed by radio-RP-HPLC to evaluate for decomposition and corresponding chromatograms are shown in Supporting Information. For protein binding measurement aliquots were analyzed by size exclusion chromatography using MicroSpin G-50 Columns (Sephadex G-50, GE Healthcare, Vienna, Austria) in triplicates. First, the columns were centrifuged at 750 rcf for 1 min to remove the storage buffer. After adding 25 μL of incubation solution columns were centrifuged again for 2 min with 2000 rcf. Column and eluate were measured in the γ-counter and percentages of nonprotein bound radiolabeled peptide (column) and protein bound radiotracer (eluate) were calculated.

Where [7] appears, read: 87 mg, accumulation in tumor tissue.

As a reminder, the tissue uptake is the percentage of the injected dose found per gram of tissue. A higher tissue uptake goes with high uptake. As a reminder, the logD is lipophilicity at a set pH, counting ionised and neutral species. Usually share remaining stands for the share of the starting amount still present when the sample was taken. The low end stands for more turnover, the high end for less turnover.

Like-named read-outs stand apart in the source and are kept apart here.

Turning to `C/C1=C/C(=O)N(O)CCC[C@H](NC(=O)CCN2C(=O)CC(SCCOCCOCCOCCOCCC(=O)NCCCC[C@@H]3NC(=O)[C@@H](Cc4ccccc4)NC(=O)[C@H](CC(=O)O)NC(=O)CNC(=O)[C@H](CCCNC(=N)N)NC3=O)C2=O)C(=O)OCC/C(C)=C\C(=O)N(O)CCC[C@H](NC(=O)CCN2C(=O)CC(SCCOCCOCCOCCOCCC(=O)NCCCC[C@@H]3NC(=O)[C@@H](Cc4ccccc4)NC(=O)[C@H](CC(=O)O)NC(=O)CNC(=O)[C@H](CCCNC(=N)N)NC3=O)C2=O)C(=O)OCC/C(C)=C\C(=O)N(O)CCC[C@H](NC(=O)CCCCC[N+]2=C(C=CC3=CC(=CC=C4N(C)c5ccc(S(=O)(=O)[O-])cc5C4(C)C)CCC3)C(C)(C)c3cc(S(=O)(=O)O)ccc32)C(=O)OCC1` (stereo partly drawn) [[^68Ga]Sulfo-Cy7-FSC-RGD, metal not drawn], the PET tumor visualization result in series [1] is given as “tumor was visualized clearly”. Further, the “Binding to serum proteins” value in the series “in vitro” is “approximately 20%”. In series [2] (setting [7]), the tissue uptake at 0.5 h stood at 10.1 ± 0.8 %ID/g and the tissue uptake at 1.5 h was found to be 7.5 ± 0.8 %ID/g. In addition, in series [2] (blood), the tissue uptake at 0.5 h came to 4 ± 0.4 %ID/g and the tissue uptake at 1.5 h was determined as 1.3 ± 0.2 %ID/g. In series [2] (kidney retention), this compound returned a tissue uptake at 1.5 h of 54.8 ± 1.1 %ID/g. Also, the kidney retention in series [3] is 57.3 ± 4.6 % ID/g. For the same compound, the logD in series [4] was -2.3 ± 0.16. Further, in series [5] (1 h), the “Cell uptake (internalized)” value came to 0.43 ± 0.25% and the “unspecific membrane bound activity” value was 0.29 ± 0.12%. In addition, in series [5] (2 h), the “Cell uptake (internalized)” value was found to be 0.71 ± 0.66% and the “unspecific membrane bound activity” value was found to be 0.80 ± 0.62%. Moreover, in series [5] (M21-L vs M21, 1 and 2 h), the “cell uptake on αvβ3 negative cells relative to αvβ3 positive cells (reduced to)” value is “approximately 1/6”. Also, in series [6] (1 h), the “Cell uptake (internalized)” value came out at 2.45 ± 0.36% and the “membrane bound amount of activity” value was determined as 1.09 ± 0.23%. In series [6] (2 h), the “Cell uptake (internalized)” value is 4.41 ± 1.17% and the “membrane bound amount of activity” value came out at 1.79 ± 0.59%. In “physchem”, this compound gave a share remaining at 1 h, 2 μM of 95.7 ± 0.1%; a fraction remaining at 2 h, 2 μM of 94.7 ± 0.6%; an amount remaining at 4 h, 2 μM of 94.4 ± 0.3%.
